{"source": "paper doi:10.1101/2023.12.05.570295", "target": "mKate2-K67R/R197H, named Diogenes"}
{"substance": "mKate2-K67R/R197H, named Diogenes", "values": [{"measurement": "OSER assay in live HeLa cells (CytERM fusion): whorl-free cells", "result": 87, "unit": "%"}]}
